Experimental findings from paper PMC11290490, “Structural insights into activation mechanisms on NADase of the bacterial DSR2 anti-phage defense system” (Science Advances, 2024) are described below.

As a reminder, the stoichiometry N is a count of units in the complex or per binding partner. Usually Kd stands for the concentration at which binding is half-saturated. A lower Kd goes with higher affinity.

B1: defense-associated sirtuin2 (DSR2) from Bacillus subtilis 29R (enzyme, UniProt P0DXN8 1-1005, looked up)
chain: MVKVDLESKRYGEKLKEVFLMLDNNVVECIKEITESSRNGKLVFFVGAGVSTLSDYPQWWRLVDKYHEELYGSPKKGNYSSDEYLRIPQIFYNVKGEMAFDGILKDFFQVDKPTNPIHDKILAMNPAHVITTNYDNLIDTACWKRGKYFSVISAEEDVANATSSRYLLKVHGDFRKGFKGENVVLKEDDYLNYDQNYPLISNLMKTIIATHTIVFIGYGLGDYNINMLLNWVRKLQKDSFHKPFFIRTDPSPIENETLIYYENKGLRIIDAASLIDSNEYDYLERYSAVMDLLIESQENKFITKDDEVIDYIYGKISPLFALQYIRKIDLKHVFEYDYHFEVNGTVVRHKNKGFGYMERFFELKESCDERSKLSKKQYERFNALFNFFEKNGVICMAKDAGTLNTSIEINSLAYHGKYDVMKKFIEEQSVSIEDDYKKAFFLACLGRWEESYDLYSNIILNSIDESNGCVYYLSQINRYRIYQSITQAVTQFNGLGLLTFGRHYKPFTDEFLARIEREMTNFNIDDLFNGMPFEFQKKYKILEFLSDNQFLYDDTVKLFELTNKVRSEMSEGSYSFGMSSDIVVLLRLYDNLRFLYENCLWSVSFHEFHQYIRNSMSLLIEKAEYERTRDIDELGFSFFGKKSGFFMEYYDFVNISRHFKIDDIKNLERSCSIDKIRFGEQEKIEEYLVGIAEEITKQFSANGMNVVFYTQFISEAKAALYFAKYVKLSEEGLGKIVKALLFYFPERDLDIGKRYVWLERLTKCNELPKSIISIIDDFLVLQAEKHIDQNYSEVSSNGLYSRDYGALIKHFEKNFISKRLSEITLCLTQDKQKQIDFLFKLLPLLSTNAKSHLLSFKSVENINDLMNGIRIGLIDEFTPEHEELIIEYLETRKVNYIVEKEKGIQTFSSNDYMSTFGIWYFLEEINNSKMEEFIGMDDQYDFFVDPENFDYKKFIPSWLKNYNDKLLGKIAGNKHMKHHVIEVLKERVKNSNDKRYLEILMNYFI
notes: DSR2 from Bacillus subtilis 29R, WP_029317421; SIR2 domain residues 1 to 297, MID 297 to 627, CTD 627 to 1005; Cloned into pET28a; tag not cleaved (purified directly by SEC); For MST the protein was fluorescently labelled with the Monolith Protein Labeling Kit RED-NHS second generation; also called DSR2^WT; His-tag DSR2; source: E. coli BL21(DE3), purified (Ni-NTA, size-exclusion gel filtration)
B2: monomeric tail tube protein (TTP) of phage SPR (natural protein)
chain: MKTVIQDTADVYFKRKSDGKLVFTAEAQTASFSQAISEEKLRGGIGNKPLYILKSEKEINLTVKNAFFDLEWLAMTQGETIQEETKVKVFDREHGLIVDDTNKVTLKGKPVSDVTFYNKKGLTYKIAVSTDGTYTIPTAFAAAKDKLTAVYQIEKVGRRLAIKASKFSERYEVEYRTIAYNPDTEEVYSDIYIQFPNVSPSGEFEMSLENGNALAPEIKFEALADTDTDEMAVVIEASRDENTAAPVEDTTGSTQSSDLGGTTE
notes: tail tube protein (TTP) from phage SPR, WP_010328117; residues 1 to 73 and 189 to 263 seen in the complex structure; also called Mono TTP; monomeric TTP; source: E. coli BL21(DE3), purified (Ni-NTA, TEV cleavage, SEC; monomeric fraction); not shown: His-tag, N-terminal, cleaved; Trx-tag, N-terminal, cleaved
B3: DSR anti-defense 1 (DSAD1) from phage phi3T/SPbeta (natural protein)
chain: KDTGATHDLVYHSKINTFVWDVEFDIVLSDSKELNKCYFVKCFNPYRINGKCDFAVSSIDIFSEGKRLLIENEFNFKITKAVHVATSKDVTEIVLHLSERISSPFPIVKEVVYLD
notes: DSAD1 from phage phi3T/SPbeta, WP_004399562; source: E. coli BL21(DE3), purified (Ni-NTA, TEV cleavage, SEC); not shown: His-tag, N-terminal, cleaved; Trx-tag, N-terminal, cleaved

Series [1] deals with the molecule itself. Description: cryo-EM structure; purified DSR2 or its complex with DSAD1 or TTP (formed at a molar ratio of 1:3, on ice, purified by gel filtration), 1.0 mg/ml on Quantifoil grids. A general note: SEC sorts molecules by how far they enter the pores of the column.
The target in series [2] is B1. As to the kind of experiment: MST; DSR2 fluorescently labelled (RED-NHS), 100 nM, mixed with twofold dilutions of TTP or DSAD1; 10 mM phosphate-buffered saline, 0.05% Tween 20; 20 min at room temperature; Monolith NT.115; triplicate. The settings on record: both partners purified.
Series [3] concerns the target B1. As to the kind of experiment: cryo-EM structure; purified DSR2 or its complex with DSAD1 or TTP (formed at a molar ratio of 1:3, on ice, purified by gel filtration), 1.0 mg/ml on Quantifoil grids. The settings on record: both partners purified.

B1: the “stoichiometry N” value in series [1] came out at 4. In turn, B2 displayed a Kd in series [2] of 655 nM. This counts as sub-micromolar. Turning to B3, the “stoichiometry N” value in series [3] is 0.5 DSAD1:DSR2. The Kd in series [2] stood at 40.4 nM.
